Assay results: the RNAGym collection of RNA variant scans (doi:10.1073/pnas.2313332121)
This sample holds only a part of the variants without activity.

B1: TPR 5TU (parent)
chain: GGAUCUUCUCGAUCUAACAAAAAAGACAAAUCUGCCACAAAGCUUGAGAGCAUCUUCGGAUGCAGAGGCGGCAGCCUUCGGUGGCGCGAUAGCGCCAACGUUCUCAACUAUGACACGCAAAACGCGUGCUCCGUUGAAUGGAGUUUAUCAUG

Variants of: B1
Test: polymerase ribozyme fitness, log enrichment relative to wild type (log ratio); higher = more active; in vitro selection for triplet polymerase activity
In short: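 After PCR construction and transcription, each subunit's mutant library from a heterodimeric triplet polymerase ribozyme was annealed with a biotinylated primer, the partner subunit and triplets. Incubation was frozen, at −7 °C, and extended constructs were gel-excised, bound to streptavidin beads and amplified by RT-PCR, in one selection round done in triplicate. Fitness is the logarithm of a genotype's enrichment divided by that of the wild type, from inverse-variance-weighted replicate averages of Illumina-sequenced inputs and outputs. The base of the logarithm is 2, and genotypes needed ≥10 input reads and ≥1 read per output.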

Question: With A22U C43U A47C A91C C108U A115U A121C as the variant, how does the “polymerase ribozyme fitness (log ratio)” value read?
Answer: ≤ -4.2

Question: For A22U U55A G94A A98U U135A, which “polymerase ribozyme fitness (log ratio)” value is on record?
Answer: -2.29

Question: Which “polymerase ribozyme fitness (log ratio)” value does the source give for A22U G46U C69A C93A C131A U148A here?
Answer: ≤ -4.2

Question: For A22U C96U C118U, which “polymerase ribozyme fitness (log ratio)” value is on record?
Answer: -0.15

Question: Which “polymerase ribozyme fitness (log ratio)” value does the source give for A22C A26G A30U U45G G74C C103G G140U here?
Answer: ≤ -4.2

Question: Which “polymerase ribozyme fitness (log ratio)” value does the source give for A22U C36G C105G here?
Answer: ≤ -4.2

Question: With A22C A24U G50C G58A C93U G94U as the variant, how does the “polymerase ribozyme fitness (log ratio)” value read?
Answer: ≤ -4.2

Question: For A22U C99G C116U, which “polymerase ribozyme fitness (log ratio)” value is on record?
Answer: -0.689

Question: Which “polymerase ribozyme fitness (log ratio)” value does the source give for A22U A29C A47G U134C U139A here?
Answer: ≤ -4.2

Question: For A22C U33A G50A A66U C93U G100C A138G C149A, which “polymerase ribozyme fitness (log ratio)” value is on record?
Answer: ≤ -4.2

Question: With A22C A47C A73U G83U G84A C95U C103G C116U G140C as the variant, how does the “polymerase ribozyme fitness (log ratio)” value read?
Answer: ≤ -4.2

Question: For A22C G34U U82A C93A, which “polymerase ribozyme fitness (log ratio)” value is on record?
Answer: ≤ -4.2

Question: Which “polymerase ribozyme fitness (log ratio)” value does the source give for A22G G58A C75A G86U C99A C103U G141C here?
Answer: ≤ -4.2

Question: With A22U A39C U61A C72U C85G G141A as the variant, how does the “polymerase ribozyme fitness (log ratio)” value read?
Answer: ≤ -4.2

Question: For A23C A60G C96A C118U, which “polymerase ribozyme fitness (log ratio)” value is on record?
Answer: ≤ -4.2

Question: Which “polymerase ribozyme fitness (log ratio)” value does the source give for A22U G71A here?
Answer: -2.64

Question: With A22U A47G U56C G92C C105U as the variant, how does the “polymerase ribozyme fitness (log ratio)” value read?
Answer: -3.13

Question: For A22G C51G A91U G94U U144C, which “polymerase ribozyme fitness (log ratio)” value is on record?
Answer: ≤ -4.2

Question: Which “polymerase ribozyme fitness (log ratio)” value does the source give for A22C C131G here?
Answer: -3.49

Question: For A22C C57U A60U C69G, which “polymerase ribozyme fitness (log ratio)” value is on record?
Answer: -1.7

Question: With A22C G86C as the variant, how does the “polymerase ribozyme fitness (log ratio)” value read?
Answer: -2.83

Question: For A22C C125U, which “polymerase ribozyme fitness (log ratio)” value is on record?
Answer: -0.469

Question: Which “polymerase ribozyme fitness (log ratio)” value does the source give for A22U U53A G88A C116G A142G A150C here?
Answer: ≤ -4.2

Question: With A22U A89U as the variant, how does the “polymerase ribozyme fitness (log ratio)” value read?
Answer: 0.229

Question: Which “polymerase ribozyme fitness (log ratio)” value does the source give for A22C C76A G128U C129U here?
Answer: ≤ -4.2

Question: With A22C A52G G71A C79G C87G C99G C114G U127G C129A A142C as the variant, how does the “polymerase ribozyme fitness (log ratio)” value read?
Answer: ≤ -4.2

Question: With A22U G58C C87U U135C as the variant, how does the “polymerase ribozyme fitness (log ratio)” value read?
Answer: -2.68

Question: For A22U A37U C95U U146A, which “polymerase ribozyme fitness (log ratio)” value is on record?
Answer: -1.67

Question: With A23C A29G G81A G84U A122G G126A U135A as the variant, how does the “polymerase ribozyme fitness (log ratio)” value read?
Answer: ≤ -4.2

Question: Which “polymerase ribozyme fitness (log ratio)” value does the source give for A22C G84A C99A G152U here?
Answer: ≤ -4.2

Question: With A23C A60U G84U C105A as the variant, how does the “polymerase ribozyme fitness (log ratio)” value read?
Answer: ≤ -4.2

Question: Which “polymerase ribozyme fitness (log ratio)” value does the source give for A22G A24U G59C C96G A98U here?
Answer: 0.453

Question: For A22C U101G, which “polymerase ribozyme fitness (log ratio)” value is on record?
Answer: 0.0923

Question: For A22U A26U, which “polymerase ribozyme fitness (log ratio)” value is on record?
Answer: -2.88

Question: For A22U C125U, which “polymerase ribozyme fitness (log ratio)” value is on record?
Answer: -0.442

Question: With A22U U56A A106U A107C A142G as the variant, how does the “polymerase ribozyme fitness (log ratio)” value read?
Answer: ≤ -4.2

Question: With A22U G92C C93U A119G as the variant, how does the “polymerase ribozyme fitness (log ratio)” value read?
Answer: -3.96

Question: With A22G C38U C95U A107C G128A as the variant, how does the “polymerase ribozyme fitness (log ratio)” value read?
Answer: ≤ -4.2

Question: With A21U U61A G88A as the variant, how does the “polymerase ribozyme fitness (log ratio)” value read?
Answer: ≤ -4.2

Question: With A23C A30U G50A C54A C93G C95U G124A as the variant, how does the “polymerase ribozyme fitness (log ratio)” value read?
Answer: ≤ -4.2

Question: Which “polymerase ribozyme fitness (log ratio)” value does the source give for A22U A40C G65A here?
Answer: -3.81

Question: With A21U U56A G140A G141A as the variant, how does the “polymerase ribozyme fitness (log ratio)” value read?
Answer: -4.17

Question: For A22U C99U U101G A115U U151G, which “polymerase ribozyme fitness (log ratio)” value is on record?
Answer: ≤ -4.2

Question: For A22U G94A, which “polymerase ribozyme fitness (log ratio)” value is on record?
Answer: -0.557

Question: Which “polymerase ribozyme fitness (log ratio)” value does the source give for A22C A60G C87U here?
Answer: 0.179

Question: For A22U G50C U53G G88C C93U C96U C108U, which “polymerase ribozyme fitness (log ratio)” value is on record?
Answer: ≤ -4.2

Question: With A22U G141C as the variant, how does the “polymerase ribozyme fitness (log ratio)” value read?
Answer: 1.14

Question: Which “polymerase ribozyme fitness (log ratio)” value does the source give for A22U A106G here?
Answer: 1.21

Question: Which “polymerase ribozyme fitness (log ratio)” value does the source give for A22U C96U A121U U139A here?
Answer: -4.03

Question: For A22C A28C A40G C43U U56G C85U, which “polymerase ribozyme fitness (log ratio)” value is on record?
Answer: ≤ -4.2

Question: With A22C A24C U61G G88U as the variant, how does the “polymerase ribozyme fitness (log ratio)” value read?
Answer: ≤ -4.2

Question: Which “polymerase ribozyme fitness (log ratio)” value does the source give for A22C C27G A37C A73G U146A G152U here?
Answer: ≤ -4.2

Question: For A22C A23G C93G C149U, which “polymerase ribozyme fitness (log ratio)” value is on record?
Answer: ≤ -4.2

Question: For A22G A24G G92U, which “polymerase ribozyme fitness (log ratio)” value is on record?
Answer: ≤ -4.2

Question: Which “polymerase ribozyme fitness (log ratio)” value does the source give for A22G U53C C54U U78C G117A here?
Answer: -1.92

Question: With A22U G46A as the variant, how does the “polymerase ribozyme fitness (log ratio)” value read?
Answer: 0.387

Question: For A22U U56A, which “polymerase ribozyme fitness (log ratio)” value is on record?
Answer: -0.239

Question: With A21U U82C as the variant, how does the “polymerase ribozyme fitness (log ratio)” value read?
Answer: 0.17

Question: With A22C U53A G84C G112A C129A U134G A147C as the variant, how does the “polymerase ribozyme fitness (log ratio)” value read?
Answer: ≤ -4.2

Question: Which “polymerase ribozyme fitness (log ratio)” value does the source give for A22G U144C here?
Answer: 0.51

Question: Which “polymerase ribozyme fitness (log ratio)” value does the source give for A23C A39U G46U U90A C96A C99U C114G G141C here?
Answer: ≤ -4.2

Question: For A22U A73G U82A, which “polymerase ribozyme fitness (log ratio)” value is on record?
Answer: 1.72

Question: For A22U C32U U55G U56C C75A G88U C105U A142U, which “polymerase ribozyme fitness (log ratio)” value is on record?
Answer: ≤ -4.2

Question: For A22C A29U A41G G50C U77A C85U C93G G141C, which “polymerase ribozyme fitness (log ratio)” value is on record?
Answer: ≤ -4.2

Question: For A22C U102G A110G, which “polymerase ribozyme fitness (log ratio)” value is on record?
Answer: ≤ -4.2

Question: With A22C C35G U44A A60G C76A C95U G128A A150C U151G as the variant, how does the “polymerase ribozyme fitness (log ratio)” value read?
Answer: ≤ -4.2

Question: For A22U A41C A52U G124U, which “polymerase ribozyme fitness (log ratio)” value is on record?
Answer: -2.3

Question: With A22C C32G C43G G92A C114U C118G U139A as the variant, how does the “polymerase ribozyme fitness (log ratio)” value read?
Answer: ≤ -4.2

Question: Which “polymerase ribozyme fitness (log ratio)” value does the source give for A22U C54A here?
Answer: -0.932

Question: With A22C A26U U31C A37C U56C A73C A91C as the variant, how does the “polymerase ribozyme fitness (log ratio)” value read?
Answer: ≤ -4.2

Question: For A22U A49U G81U G86C G141C, which “polymerase ribozyme fitness (log ratio)” value is on record?
Answer: -4.13

Question: For A22C C27U C54U C85G A91U G112A A119U A147C A150C, which “polymerase ribozyme fitness (log ratio)” value is on record?
Answer: ≤ -4.2

Question: With A22C A41C G50A A115G as the variant, how does the “polymerase ribozyme fitness (log ratio)” value read?
Answer: -3.63

Question: Which “polymerase ribozyme fitness (log ratio)” value does the source give for A22U C96U here?
Answer: 0.237

Question: Which “polymerase ribozyme fitness (log ratio)” value does the source give for A22U C76U here?
Answer: 0.515

Question: Which “polymerase ribozyme fitness (log ratio)” value does the source give for A22C A52U U82C G86U A97G here?
Answer: -3.83

Question: For A22G G117A, which “polymerase ribozyme fitness (log ratio)” value is on record?
Answer: 1.13

Question: For A22U G83C G84A U101A C123A, which “polymerase ribozyme fitness (log ratio)” value is on record?
Answer: -4.08

Question: With A22U C27G C57G U61A C95U U104G U145G as the variant, how does the “polymerase ribozyme fitness (log ratio)” value read?
Answer: ≤ -4.2

Question: For A21U U55A C93G A97U A115U, which “polymerase ribozyme fitness (log ratio)” value is on record?
Answer: ≤ -4.2

Question: With A22G G92A C108G as the variant, how does the “polymerase ribozyme fitness (log ratio)” value read?
Answer: ≤ -4.2

Question: With A22U C57U U78A C79U G84C G117C as the variant, how does the “polymerase ribozyme fitness (log ratio)” value read?
Answer: ≤ -4.2

Question: Which “polymerase ribozyme fitness (log ratio)” value does the source give for A22G U56A C96G U101C G143A U148A here?
Answer: ≤ -4.2
